The source of these data is the nanobody polyreactivity screen of Harvey et al. (2022).

This data set in a line: yeast display, Sf9 membrane polyspecificity reagent, FACS + sequencing; frameworks hold sequencing errors. The essentials:
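Genes from sorted yeast were amplified by colony PCR, read by MiSeq 2 × 250 sequencing and filtered on CDR length. These cells carried a synthetic nanobody library in Saccharomyces cerevisiae BJ5465 and were sorted by FACS into low and high (top ~1%) gates on anti-HA and streptavidin fluorescence. Polyreactivity is labelled according to the gate of origin.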
On to “QVQLVESGGGLVQAGGSLRLSCAASGRIFAFNAMGGYRQAPGKERELVAAITGRGGRTYYADSVKGRFTISRDHAKNTVYLQMNSLKPEDTAVYYCAAQRYINYDYWGQGTQVTVSS”, for which the “polyreactivity (PSR sort gate)” value is given as “high polyreactivity”. “QVQLVESGGGLVQAGGSLRLSCAASGRIFAFYAMGWYRQAPGKERELVAAISWDGGSSYYADSVKGRFTISRDNAKNTVYLQMNSLKPEDTAVYDCNKDLYYAYDYWGQGTQVTVSS”: the “polyreactivity (PSR sort gate)” value is on record as “low polyreactivity”. In the case of “QVQLVESGGGLVQAGGSLRLSCAASGRIFAGYAMGWYRQAPGTERELVATITRGGSTNYADSVKRPFTISRDNAKNTVYLQMNSLKPEDTAVYYCNADIRRHGGYAHEYWGQGTKVTVSS”, the “polyreactivity (PSR sort gate)” value is “low polyreactivity”. The same measure for “QVQLVESGGGLVQAGGSLRLSCAASGRIFAGYTMGWYRPAPGKERELVAAIRSSGRTHYADSVKGRFTISRDNAKNTVYLQMYSLKPEDTAVYYCAARWTYTFAYRFDYWGQGTQVTVSS”: “high polyreactivity”. In the case of “QVQLVESGGGLVQAGGSLRLSCAASGRIFAHFAMGGYRQAPGKEWELVAAIDSGGSTDYADSVKGRFTISRDNAKNTVYLQMNSLKPEDTAVYYCNAERAYLWWYNFDYWGQGTQVTVSS”, the “polyreactivity (PSR sort gate)” value is reported as “low polyreactivity”.

In the case of “QVQLVESGGGLVQAGGSLRLSCAASGRIFAKNAMGWYRQAPGKERELVAAISGSGGSTYYADSVKGRFTISRDNAKNTVYLQMNSLKPDDTAVYYCAATRGPNYRNGYWGQGTQVTVSS”, the “polyreactivity (PSR sort gate)” value is “high polyreactivity”. For “QVQLVESGGGLVQAGGSLRLSCAASGRIFAKNTMGWYRQAPGKERELVAAITWSSGNTDYADSVKGRFTISRDNAKNTVYLQMNSLKPEDTAVYYCAAYPRWTYWGYVERYYWGQGTQVTVSS”, the “polyreactivity (PSR sort gate)” value is reported as “high polyreactivity”.

“QVQLVESGGGLVQAGGSLRLSCAASGRIFANYAMGWYRQAPGKERELVAAISRSGGSTSYADSVKGRFTISRDNAKNTVYLQMNSLKPEDTAVYYCAATRSRYQPVKYGYWGQGTQVTVSS”: the “polyreactivity (PSR sort gate)” value is “high polyreactivity”.

Turning to “QVQLVESGGGLVQAGGSLRLSCAASGRIFAPNAMGWYRQAPGKEREFVASIRWNGGSTYYADSVKGRFTISRDNAKNTVYLQMNSLKPADTAVYYCAARGWGYRRNYVYAWYDYWGQGTQVTVSS”, the “polyreactivity (PSR sort gate)” value was “high polyreactivity”. With “QVQLVESGGGLVQAGGSLRLSCAASGRIFAPNAMGWYRQAPGKERELVAAISFSGDSTSYADSVKGRFTISRDNAKNTVYLQMNSLKPEDTAVYYCATDRRVQYPLGPSYDYDYWGQGTQVTVSS” the entry was “low polyreactivity”; with “QVQLVESGGGLVQAGGSLRLSCAASGRIFAPYAMGWYRQAPGKERELVAGISIGGSTYYADSVKGRFTISRDNAKNTVYLQMNSLKPEDTAVYYCAALYNFWYSTYYYWGQGTQVTVSS”, “high polyreactivity”; with “QVQLVESGGGLVQAGGSLRLSCAASGRIFARNAMGWSRQAPGKERELVAAISGGGNTYADSVKGRFTISRDNAKNTVYLQMNSLKPEDTAVYYCARVVHFRGVRYDYWGQGTQVTVSS”, “high polyreactivity”. The same measure for “QVQLVESGGGLVQAGGSLRLSCAASGRIFARNAMGWSRQAPGKERELVAASSSGGGSTYYADSVKGRFTISRDNAKNTVYLRMISLKPEDTAVYYCAARTRITYDWGQGTQVTVSS”: “low polyreactivity”; for “QVQLVESGGGLVQAGGSLRLSCAASGRIFARNAMGWYRQAPGKERELVATIRVGGGSTYYADSVKGRFTISRDNAKNTVYLQMNSLKPEDTAVYSCAVRQLYSYPGDRRGYYWGQGTQVTVSS”: “low polyreactivity”. For “QVQLVESGGGLVQAGGSLRLSCAASGRIFARYAMGWYRQAPGKERELVAAITVSGDNTYYADSVKGRFTISRDNAKNTVYLQMNSLKPEDTAVYYCNAYFLVHYRRLRPYDYWGQGTQVTVSS”, the “polyreactivity (PSR sort gate)” value is reported as “low polyreactivity”. For the sequence “QVQLVESGGGLVQAGGSLRLSCAASGRIFASNAMGWYRQAPGKERELVAAIDQGGGSTYYADSVKGRFTISRDNAKNTVYLQMNSLKPEDTAVYDCAADYISAYPRLYNYWGQGTQVTVSS”, the “polyreactivity (PSR sort gate)” value is reported as “low polyreactivity”. “QVQLVESGGGLVQAGGSLRLSCAASGRIFASNDMGWYRQAPGKEREWVAAITSGGSTYYADSVKGRFTISRDNAKNTVYLQMNSLKPEDTAVYYCAAGSAYYSQRYFAYGYYSWGQGTQVTVSS”: the “polyreactivity (PSR sort gate)” value is “low polyreactivity”. The same measure for “QVQLVESGGGLVQAGGSLRLSCAASGRIFASYAMGWYRQAPGKERELVAAISGSGASTYYADSVKGRFTISRDNAKNTVYLQMNSLKPEDTAVYYCAAKATSEGDEYWGQGTQVTVSS”: “high polyreactivity”; for “QVQLVESGGGLVQAGGSLRLSCAASGRIFASYAMGWYRQAPGKERELVAAISWGDDSTYYADSVKGRFTISRDNAKNTVYLQMNSLKPEDTAVYYCAAAFWFGPYRLYYWGQGTQVTVSS”: “high polyreactivity”. Regarding “QVQLVESGGGLVQAGGSLRLSCAASGRIFATYVMGGYRQAPGKERELVATISSGGSTNYADSVKGRFTISRDNAKNTVYLQMNSLKPEDTAVYYCAVVDGNYWYVKGDYWGQGTQVTVSS”, the “polyreactivity (PSR sort gate)” value was “low polyreactivity”. As to “QVQLVESGGGLVQAGGSLRLSCAASGRIFAWNAMGWYRQAPGKERELVAAITRGTNTYYADSVKGRFTISRDNAKNTVYLQMNSLKPEDTAVYYCAARLPYNAIGYYYWGQGTQVTVSS”, the “polyreactivity (PSR sort gate)” value is listed as “low polyreactivity”. Take “QVQLVESGGGLVQAGGSLRLSCAASGRIFAWNAMGWYRQAPGKERELVARIRVSGGRTYYADSVKGRFTISRDNAKNTVYLQMKSLKPDDTAVYYCNAYLRSGSMDYWGQGTQVTVSS”: the “polyreactivity (PSR sort gate)” value is given as “high polyreactivity”. For the sequence “QVQLVESGGGLVQAGGSLRLSCAASGRIFAYNALGWYRQAPGKERELVAAISWSGSSTYYADSVKGRFTISRDNAQNRVYLQMNSLTPEDTAVYYCAATPWYYYSTSYAYYDWGQGTQVTVSA”, the “polyreactivity (PSR sort gate)” value is reported as “high polyreactivity”. With “QVQLVESGGGLVQAGGSLRLSCAASGRIFAYNTMGWYRQAPGKERELVAVITSGGSTNYADSVKGRFTISRDNAKNTVYLQMNSLKPEDTAVDYCNAPYVARKRFSYNYWGQGTQVTVSS”, the “polyreactivity (PSR sort gate)” value is reported as “high polyreactivity”.

Regarding “QVQLVESGGGLVQAGGSLRLSCAASGRIFAYYAMGWYRQAPGKERELVAAISGSDGSTYYADSVKGRFTISLDNAKNTVYLQMNSLKPEDTAVYYCAAQDTPGYDYWGQGTQVTVSS”, the “polyreactivity (PSR sort gate)” value was “low polyreactivity”. Take “QVQLVESGGGLVQAGGSLRLSCAASGRIFAYYAMGWYRQAPGKERELVATINYSGTSTYYADSVKGRFTISRDNAKNTVYLQMNSLKPEDTAVYYCAARYGYAVYYYGTPVRRYYYWGQGTQVTVSS”: the “polyreactivity (PSR sort gate)” value is “high polyreactivity”. With “QVQLVESGGGLVQAGGSLRLSCAASGRIFAYYAMGWYRQAPGKERELVATITDSGDDTYYADSVKGRFTISRDNAKNTVYLQMNSLKPEDTAVYYCNAVWRGWYPYWYDYWGQGTQVTVSS” the entry was “low polyreactivity”. With “QVQLVESGGGLVQAGGSLRLSCAASGRIFAYYAMGWYRQAPGKESELVAAINWSGDGTNYADSVKGRFTISRDNAKNTVYLQMNSLKPVDTAVYYCAARLGHSVNPGGERWDVEYWGQGTQVTVSS” the entry was “low polyreactivity”. Take “QVQLVESGGGLVQAGGSLRLSCAASGRIFAYYAMGWYRQAPGTERELVALISSTGGSTYYADSVKGRFTISRDNAKNTVYLQMNSLKPEDTAVYYCNKQVTGAERFQGHGAYYWGQGTQVTVSS”: the “polyreactivity (PSR sort gate)” value was “high polyreactivity”. Take “QVQLVESGGGLVQAGGSLRLSCAASGRIFAYYTMGWYRQAPGKERELVASITSGSSTNYADSVKGLFTISRDNAKNTVYLQMNSLKPEDTAVYYCAAPRGSYVRTRYRGYVVQSNYWGQGTQVTVSS”: the “polyreactivity (PSR sort gate)” value is on record as “high polyreactivity”. The same measure for “QVQLVESGGGLVQAGGSLRLSCAASGRIFDANAMGWYRQAPGKERELVAAINLSGTSTYADSVKGRFTISRDNAKNTVYLQMNSLKPEDTAVYYCNKRSPSTIRFDYWGQGTQVTVSS”: “high polyreactivity”; for “QVQLVESGGGLVQAGGSLRLSCAASGRIFDDNTMGWSRQAPGKERELVAVITSGGSTNYADSVKGRFTISRDNAKNTVYLQMNSLKQEDTAVYYCATEPGGYRFADRPFQYGYWGQGTQVTVSS”: “low polyreactivity”.

For “QVQLVESGGGLVQAGGSLRLSCAASGRIFDFNAMGWYRQAPGKDRELLAAISRGGGSTYYADSVKGRFTMSRDNAKYTVYLQMNSLKPEDTAVYYCNADYYYPLRSNKYYYWGQGTQVTVSS”, the “polyreactivity (PSR sort gate)” value is given as “high polyreactivity”. Turning to “QVQLVESGGGLVQAGGSLRLSCAASGRIFDFNAMGWYRQAPGKEREVVAAISSGGRTKYADSVKGRFTISRDNAKNTVYLQMNSLKPEDTAVYYCAASGSQPDDYWGQGTQVTVSS”, the “polyreactivity (PSR sort gate)” value is given as “high polyreactivity”. With “QVQLVESGGGLVQAGGSLRLSCAASGRIFDFYGMGWYTQAPGKERELVAAISRRSGSTYYADSVKGRFTISRDNAKNTDYLQMNSLKPEDTAVYYCAAEPSSYRYDYWGQGTQGTVSS” the entry was “high polyreactivity”. As to “QVQLVESGGGLVQAGGSLRLSCAASGRIFDGYAMGWYIQAPGKERELVAAISSRGGRTYYADSVKGRFTISRDNAKNTVYLQMNSLKPEDSAVYYCAADDPYGECDYWGQGTQVTVSS”, the “polyreactivity (PSR sort gate)” value was “low polyreactivity”. The same measure for “QVQLVESGGGLVQAGGSLRLSCAASGRIFDGYAMGWYRQAPGQERELVAAISSRGGRTYYADSVKGRFTISRDHAKNTVYLQMNSLKPEDTAVYYCAADDPYGEGDYWGQGTQVTVSS”: “low polyreactivity”; for “QVQLVESGGGLVQAGGSLRLSCAASGRIFDGYDMGWYRQAPGKERELVAAITSVGSTNYADSVKGRFTISRDNAKNTVYLQMNSLKPEDSAVYYCAAVLYVFYDEYGYWEYFSQYDYWGQGTQVTVSS”: “low polyreactivity”. With “QVQLVESGGGLVQAGGSLRLSCAASGRIFDHNAMGWYRQAPGKERELVAAIDWSGGSTYYADSVKGRFTISRDNAKNTVYLQMNSLKPEDTAVYYCNVYWHTFSWDDYGYWGQGTQVTVSS” the entry was “low polyreactivity”; with “QVQLVESGGGLVQAGGSLRLSCAASGRIFDINAMGWYIQAPGKERELVAAINYNGSSTYYADSVKGRFTISRDNAKNTVYLQKNSLKPEDTAVYYCATVQVDVYTYDYWGQGTKVTVSS”, “high polyreactivity”. With “QVQLVESGGGLVQAGGSLRLSCAASGRIFDLYAMRWYRQAPGKESELVAAISIRGGSTYYADSVKGRFTISRDNAKNTVYLQMNSLKPEDTAVYYCAAEGPWLSDEYDYWGQGTQVTVSS” the entry was “low polyreactivity”.
